Results on 94 variants are retold here after the supplement of paper PMC10567573.

Sequences and labels used below:
B1: SMTNL2 (parent)
chain: AFTMAENLANCERLIEVEDMMVMG
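Further: lentivirally expressed fusions sorted by FACS into six bins by GFP to DsRed ratio, PSI derived from sequencing read proportions per bin multiplied by bin number.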

The data set covers variants of B1. Kind of data set: protein stability index of a GFP-peptide fusion (GPS, HEK-293T) (PSI 1-6); higher = more stable. As to conditions: c terminus: a fixed tail appended.
Turning to AFTMAENLANCERLIEVEDYMVMG [M20Y], the protein stability index came to 1.72.
In the case of AFTMAENLANCERLIEVEDPMVMG [M20P], the protein stability index was 3.77.
With AFTMAENLANCERLIEVEDVMVMG [M20V], the protein stability index was found to be 2.68.
As for AFTMAENLANCERLIEVEDGMVMG [M20G], the figure is 2.47; as for AFTMAENLANCERLIEVEDWMVMG [M20W], 2.51.
For the variant AFTMAENLANCERLIEVEDLMVMG [M20L], the protein stability index came out at 1.9.
The same measure for AFTMAENLANCERLIEVEDEMVMG [M20E]: 4.02; for AFTMAENLANCERLIEVEDKMVMG [M20K]: 2.91.
The same measure for AFTMAENLANCERLIEVEDCMVMG [M20C]: 2.74.
For the variant AFTMAENLANCERLIEVEDTMVMG [M20T], the protein stability index was found to be 3.4.
Turning to AFTMAENLANCERLIEVEDRMVMG [M20R], the protein stability index was determined as 2.16.
Turning to AFTMAENLANCERLIEVEDQMVMG [M20Q], the protein stability index turned out to be 2.72.
With AFTMAENLANCERLIEVEDDMVMG [M20D], the protein stability index is 4.75.
Consider AFTMAENLANCERLIEVEDSMVMG [M20S], for which the protein stability index stood at 2.27.
As for AFTMAENLANCERLIEVEDMWVMG [M21W], the figure is 1.9; as for AFTMAENLANCERLIEVEDMHVMG [M21H], 3.02; as for AFTMAENLANCERLIEVEDMPVMG [M21P], 3.27.
As for AFTMAENLANCERLIEVEDMGVMG [M21G], the figure is 2.12.
With AFTMAENLANCERLIEVEDMLVMG [M21L], the protein stability index is 2.39.
On to AFTMAENLANCERLIEVEDMTVMG [M21T], for which the protein stability index turned out to be 2.68.
With AFTMAENLANCERLIEVEDMRVMG [M21R], the protein stability index amounted to 2.23.
For AFTMAENLANCERLIEVEDMAVMG [M21A], the protein stability index was 2.37.
The same measure for AFTMAENLANCERLIEVEDMQVMG [M21Q]: 3; for AFTMAENLANCERLIEVEDMKVMG [M21K]: 2.95; for AFTMAENLANCERLIEVEDMSVMG [M21S]: 2.65.
Take AFTMAENLANCERLIEVEDMEVMG [M21E]: the protein stability index was found to be 4.11.
Turning to AFTMAENLANCERLIEVEDMYVMG [M21Y], the protein stability index was found to be 2.22.
AFTMAENLANCERLIEVEDMVVMG [M21V]: the protein stability index stood at 2.18.
The same measure for AFTMAENLANCERLIEVEDMFVMG [M21F]: 2.56; for AFTMAENLANCERLIEVEDMNVMG [M21N]: 3.13.
With AFTMAENLANCERLIEVEDMCVMG [M21C], the protein stability index stood at 2.14.
Regarding AFTMAENLANCERLIEVEDMIVMG [M21I], the protein stability index was 1.98.
As to AFTMAENLANCERLIEVEDMDVMG [M21D], the protein stability index came out at 3.83.
Take AFTMAENLANCERLIEVEDMMLMG [V22L]: the protein stability index is 2.18.
In the case of AFTMAENLANCERLIEVEDMMYMG [V22Y], the protein stability index came out at 2.07.
With AFTMAENLANCERLIEVEDMMGMG [V22G], the protein stability index was determined as 2.54.
The same measure for AFTMAENLANCERLIEVEDMMAMG [V22A]: 2.05; for AFTMAENLANCERLIEVEDMMWMG [V22W]: 1.77.
In the case of AFTMAENLANCERLIEVEDMMPMG [V22P], the protein stability index was found to be 2.65.
On to AFTMAENLANCERLIEVEDMMKMG [V22K], for which the protein stability index was found to be 2.87.
The same measure for AFTMAENLANCERLIEVEDMMNMG [V22N]: 2.44; for AFTMAENLANCERLIEVEDMMTMG [V22T]: 2.25; for AFTMAENLANCERLIEVEDMMHMG [V22H]: 1.85.
Regarding AFTMAENLANCERLIEVEDMMEMG [V22E], the protein stability index amounted to 3.18.
Take AFTMAENLANCERLIEVEDMMIMG [V22I]: the protein stability index turned out to be 1.78.
AFTMAENLANCERLIEVEDMMDMG [V22D]: the protein stability index stood at 2.55.
In the case of AFTMAENLANCERLIEVEDMMRMG [V22R], the protein stability index was found to be 2.46.
As for AFTMAENLANCERLIEVEDMMQMG [V22Q], the figure is 2.82; as for AFTMAENLANCERLIEVEDMMSMG [V22S], 1.99; as for AFTMAENLANCERLIEVEDMMCMG [V22C], 2.19.
In the case of AFTMAENLANCERLIEVEDMMMMG [V22M], the protein stability index worked out at 2.19.
For the variant AFTMAENLANCERLIEVEDMMVMA [G24A], the protein stability index came to 2.03.
As for AFTMAENLANCERLIEVEDMMVMP [G24P], the figure is 2.07; as for AFTMAENLANCERLIEVEDMMVMH [G24H], 1.59.
AFTMAENLANCERLIEVEDMMVMF [G24F]: the protein stability index came out at 2.22.
For the variant AFTMAENLANCERLIEVEDMMVMN [G24N], the protein stability index is 2.45.
For AFTMAENLANCERLIEVEDMMVMM [G24M], the protein stability index amounted to 1.96.
The same measure for AFTMAENLANCERLIEVEDMMVMI [G24I]: 1.64; for AFTMAENLANCERLIEVEDMMVMQ [G24Q]: 2.71.
On to AFTMAENLANCERLIEVEDMMVMY [G24Y], for which the protein stability index is 1.27.
On to AFTMAENLANCERLIEVEDMMVML [G24L], for which the protein stability index was 1.74.
In the case of AFTMAENLANCERLIEVEDMMVMT [G24T], the protein stability index came out at 1.68.
As to AFTMAENLANCERLIEVEDMMVMC [G24C], the protein stability index is 1.52.
Take AFTMAENLANCERLIEVEDMMVMK [G24K]: the protein stability index turned out to be 2.31.
Consider AFTMAENLANCERLIEVEDMMVMV [G24V], for which the protein stability index is 1.03.
Turning to AFTMAENLANCERLIEVEDMMVMR [G24R], the protein stability index amounted to 2.47.
As to AFTMAENLANCERLIEVEDMMVME [G24E], the protein stability index stood at 2.93.
With AFTMAENLANCERLIEVEDMMVMD [G24D], the protein stability index is 2.33.
With AFTMAENLANCERLIEVEDMMVMS [G24S], the protein stability index was found to be 2.
In the case of AFTMAENLANCERLIEVERMMVMG [D19R], the protein stability index was 1.39.
With AFTMAENLANCERLIEVETMMVMG [D19T], the protein stability index stood at 1.94.
The same measure for AFTMAENLANCERLIEVEYMMVMG [D19Y]: 2.48.
Take AFTMAENLANCERLIEVESMMVMG [D19S]: the protein stability index was 1.62.
The same measure for AFTMAENLANCERLIEVEWMMVMG [D19W]: 4.57; for AFTMAENLANCERLIEVEQMMVMG [D19Q]: 2.06; for AFTMAENLANCERLIEVEDMMVHG [M23H]: 2.24.
Turning to AFTMAENLANCERLIEVEDMMVSG [M23S], the protein stability index stood at 2.69.
As to AFTMAENLANCERLIEVEDMMVDG [M23D], the protein stability index was 3.57.
As to AFTMAENLANCERLIEVEDMMVQG [M23Q], the protein stability index came out at 3.21.
The same measure for AFTMAENLANCERLIEVEDMMVCG [M23C]: 2.09; for AFTMAENLANCERLIEVEDMMVRG [M23R]: 1.97; for AFTMAENLANCERLIEVEDMMVYG [M23Y]: 1.88.
Turning to AFTMAENLANCERLIEVEDMMVVG [M23V], the protein stability index was 2.38.
As for AFTMAENLANCERLIEVEDMMVGG [M23G], the protein stability index stood at 1.7.
The same measure for AFTMAENLANCERLIEVEDMMVAG [M23A]: 2.61.
The same measure for AFTMAENLANCERLIEVEDMMVEG [M23E]: 3.69; for AFTMAENLANCERLIEVEDMMVWG [M23W]: 2.1.
The same measure for AFTMAENLANCERLIEVEDMMVFG [M23F]: 1.54.
Take AFTMAENLANCERLIEVEDMMVKG [M23K]: the protein stability index worked out at 2.8.
For the variant AFTMAENLANCERLIEVEDMMVIG [M23I], the protein stability index was found to be 1.47.
On to AFTMAENLANCERLIEVEDMMVPG [M23P], for which the protein stability index is 2.
Consider AFTMAENLANCERLIEVEDMMVNG [M23N], for which the protein stability index was 2.97.
With AFTMAENLANCERLIEVEDMMVLG [M23L], the protein stability index stood at 1.89.
With AFTMAENLANCERLIEVEDMMVTG [M23T], the protein stability index worked out at 1.8.
